Source: US20140363428A1 (Chugai, published 2014)
Numbering of substitutions follows the chain as printed.

B1: F1614 (antibody)
chain 1: QVQLQESGPGLVKPSETLSLTCAVSGHSISHDHAWSWVRQPPGEGLEWIGFISYSGITNYNPSLQGRVTISRDNSKNTLYLQMNSLRAEDTAVYYCARSLARTTAMDYWGEGTLVTVSSASTKGPSVFPLAPSSKSTSGGTAALGCLVKDYFPEPVTVSWNSGALTSGVHTFPAVLQSSGLYSLSSVVTVPSSSLGTQTYICNVNHKPSNTKVDKKVEPKSCDKTHTCPPCPAPELRGGPKVFLFPPKPKDTLYITLEPDVTCVVVDVSHEDPEVKFNWYVDGVEVHNAKTKPREEQYNSTYRVVSVLTVLHQDWLNGKEYKCKVSNKALPAPIEKTISKAKGQPREPQVYTLPPSRDELTKNQVSLTCLVKGFYPSDIAVEWESNGQPENNYKTTPPVLDSDGSFFLYSKLTVDKSRWQQGNVFSCSVMHEALDYHVTRKDLSLSP
chain 2: DIQMTQSPSSLSASVGDSVTITCQASTDISSHLNWYQQKPGKAPELLIYYGSHLLSGVPSRFSGSGSGTDFTFTISSLEAEDAATYYCGQGNRLPYTFGQGTKVEIERTVAAPSVFIFPPSDEQLKSGTASVVCLLNNFYPREAKVQWKVDNALQSGNSQESVTEQDSKDSTYSLSSTLTLSKADYEKHKVYACEVTHQGLSSPVTKSFNRGEC
B2: F1646 (antibody)
chain 1: B1 chain 1 with L257R, D260E, D435K, R440K
chain 2: B1 chain 2
B3: F1613 (antibody)
chain 1: B1 chain 1 with D260I, R440K
chain 2: B1 chain 2
B4: F1615 (antibody)
chain 1: B1 chain 1 with D260I
chain 2: B1 chain 2
B5: F1645 (antibody)
chain 1: B1 chain 1 with L257R, D260E, D435K
chain 2: B1 chain 2
B6: F1647 (antibody)
chain 1: B1 chain 1 with L257R, D260E, D435P, R440K, D442E
chain 2: B1 chain 2
B7: F1578 (antibody)
chain 1: B1 chain 1 with L257R, D260E, D435R, D442E
chain 2: B1 chain 2
B8: F1567 (antibody)
chain 1: B1 chain 1 with L257R, D260E, D435A, D442E
chain 2: B1 chain 2
B9: F1642 (antibody)
chain 1: B1 chain 1 with L257R, D260E, D435A
chain 2: B1 chain 2
B10: F1644 (antibody)
chain 1: B1 chain 1 with L257R, D260E, D435K, R440K, D442E
chain 2: B1 chain 2
B11: F1576 (antibody)
chain 1: B1 chain 1 with L257R, D260E, D435P, D442E
chain 2: B1 chain 2
B12: F1648 (antibody)
chain 1: B1 chain 1 with L257R, D260E, D435P
chain 2: B1 chain 2
B13: F1641 (antibody)
chain 1: B1 chain 1 with L257R, D260E, D435A, R440K, D442E
chain 2: B1 chain 2
B14: F1643 (antibody)
chain 1: B1 chain 1 with L257R, D260E, D435A, R440K
chain 2: B1 chain 2
B15: F1579 (antibody)
chain 1: B1 chain 1 with L257R, D260E, D435S, D442E
chain 2: B1 chain 2
B16: F1649 (antibody)
chain 1: B1 chain 1 with L257R, D260E, D435P, R440K
chain 2: B1 chain 2
B17: F1572 (antibody)
chain 1: B1 chain 1 with L257R, D260E, D435K, D442E
chain 2: B1 chain 2
B18: F1650 (antibody)
chain 1: B1 chain 1 with L257R, D260E, D435R, R440K, D442E
chain 2: B1 chain 2
B19: IgG1-F1353 (antibody)
heavy: B1 chain 1 with T256S, L257R, E258T, D260E, V438T, D442E
light: not shown
B20: IgG1-F1359 (antibody)
heavy: B1 chain 1 with L257R, E258T, D260E, D435H, V438F, D442E
light: not shown
B21: IgG1-F1373 (antibody)
heavy: B1 chain 1 with L257R, D260E, V438F, R440K, D442E
light: not shown
B22: IgG1-F1364 (antibody)
heavy: B1 chain 1 with T256S, L257R, D260E, D435H, V438F, R440K, D442E
light: not shown
B23: IgG1-F1367 (antibody)
heavy: B1 chain 1 with L257R, D260E, D435H, V438T, D442E
light: not shown
B24: IgG1-F1354 (antibody)
heavy: B1 chain 1 with T256S, L257R, E258T, D260E, V438F, R440K, D442E
light: not shown
B25: IgG1-F1365 (antibody)
heavy: B1 chain 1 with T256S, L257R, D260E, V438T, R440K, D442E
light: not shown
B26: IgG1-F1355 (antibody)
heavy: B1 chain 1 with T256S, L257R, E258T, D260E, V438F, D442E
light: not shown
B27: IgG1-F1366 (antibody)
heavy: B1 chain 1 with T256S, L257R, D260E, V438F, R440K, D442E
light: not shown
B28: IgG1-F1358 (antibody)
heavy: B1 chain 1 with L257R, E258T, D260E, D435H, V438F, R440K, D442E
light: not shown
B29: IgG1-F1362 (antibody)
heavy: B1 chain 1 with L257R, E258T, D260E, V438F, R440K, D442E
light: not shown
B30: IgG1-F1361 (antibody)
heavy: B1 chain 1 with L257R, E258T, D260E, V438T, D442E
light: not shown
B31: IgG1-F1368 (antibody)
heavy: B1 chain 1 with L257R, D260E, D435H, V438F, R440K, D442E
light: not shown
B32: IgG1-F1360 (antibody)
heavy: B1 chain 1 with L257R, E258T, D260E, V438T, R440K, D442E
light: not shown
B33: IgG1-F1357 (antibody)
heavy: B1 chain 1 with L257R, E258T, D260E, D435H, V438T, D442E
light: not shown
B34: IgG1-F1356 (antibody)
heavy: QVQLQESGPGLVKPSETLSLTCAVSGHSISHDHAWSWVRQPPGEGLEWIGFISYSGITNYNPSLQGRVTISRDNSKNTLYLQMNSLRAEDTAVYYCARSLARTTAMDYWGEGTLVTVSSASTKGPSVFPLAPSSKSTSGGTAALGCLVKDYFPEPVTVSWNSGALTSGVHTFPAVLQSSGLYSLSSVVTVPSSSLGTQTYICNVNHKPSNTKVDKKVEPKSCDKTHTCPPCPAPELLRGPSVFLFPPKPKDTLYISRTPEVTCVVVDVSHEDPEVKFNWYVDGVEVHNAKTKPREEQYNSTYRVVSVLTVLHQDWLNGKEYKCKVSNKARPAPIEKTISKAKGQPREPQVYTLPPSRDELTKNQVSLTCLVKGFYPSDIAVEWESNGQPENNYKTTPPVLDSDGSFFLYSKLTVDKSRWQQGNVFSCSVMHEALHYHVTQKSLSLSP
light: not shown
B35: IgG1-F1372 (antibody)
heavy: B1 chain 1 with L257R, D260E, V438T, D442E
light: not shown

These binders were tested against T1, soluble human FcRn (human, UniProt P55899 24-297; P61769 21-119) (assay: SPR (Biacore), pH 7.0).
T1 construct: Heterodimer of alpha chain and beta2-microglobulin; also called hFcRn
T1 sequence (P55899 24-297 limits assumed, chain 1 of 2): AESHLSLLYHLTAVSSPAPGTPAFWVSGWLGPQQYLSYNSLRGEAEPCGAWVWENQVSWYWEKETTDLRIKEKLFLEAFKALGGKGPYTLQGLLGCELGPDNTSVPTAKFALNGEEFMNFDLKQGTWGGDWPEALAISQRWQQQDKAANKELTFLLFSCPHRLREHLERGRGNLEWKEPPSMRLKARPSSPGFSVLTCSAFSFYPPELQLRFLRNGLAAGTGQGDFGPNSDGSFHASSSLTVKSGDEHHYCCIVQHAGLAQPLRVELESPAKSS
T1 sequence (P61769 21-119 limits assumed, chain 2 of 2): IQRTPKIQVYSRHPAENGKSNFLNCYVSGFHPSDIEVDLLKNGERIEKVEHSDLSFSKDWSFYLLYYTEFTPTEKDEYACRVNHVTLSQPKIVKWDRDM

| Binder | Kd |
| --- | --- |
| B1 | 51 nM |
| B2 | 35 nM |
| B3 | 52 nM |
| B4 | 60 nM |
| B5 | 36 nM |
| B6 | 38 nM |
| B7 | 46 nM |
| B8 | 48 nM |
| B9 | 41 nM |
| B10 | 35 nM |
| B11 | 43 nM |
| B12 | 38 nM |
| B13 | 41 nM |
| B14 | 39 nM |
| B15 | 54 nM |
| B16 | 37 nM |
| B17 | 41 nM |
| B18 | 40 nM |

These binders were tested against T1, soluble human FcRn (assay: SPR (Biacore), pH 7.0, 25 C;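 note: antibodies captured on a protein L-coated CM4 chip with human FcRn injected as analyte, KD obtained from ka and kd fitted to sensorgrams, in sodium phosphate buffer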).
Protocol: An appropriate amount of protein L (ACTIGEN) was immobilized onto Sensor chip CM4 (GE Healthcare) by the amino coupling method, and the chip was allowed to capture an antibody of interest. Then, diluted FcRn solutions and running buffer (as a reference solution) were injected to allow human FcRn to interact with the antibody captured on the sensor chip. The running buffer used comprised 50 mmol/l sodium phosphate, 150 mmol/l NaCl, and 0.05% (w/v) Tween20 (pH 7.0). FcRn was diluted using each buffer. The chip was regenerated using 10 mmol/l glycine-HCl (pH 1.5). Assays were carried out exclusively at 25 degrees C. The association rate constant ka (1/Ms) and dissociation rate constant kd (1/s), both of which are kinetic parameters, were calculated based on the sensorgrams obtained in the assays, and KD (M) of each antibody for human FcRn was determined from these values. Each parameter was calculated using Biacore T100 Evaluation Software (GE Healthcare).

| Binder | Kd |
| --- | --- |
| B19 | 430 nM |
| B20 | 130 nM |
| B21 | 87 nM |
| B22 | 75 nM |
| B23 | 180 nM |
| B24 | 230 nM |
| B25 | 310 nM |
| B26 | 250 nM |
| B27 | 120 nM |
| B28 | 91 nM |
| B29 | 140 nM |
| B30 | 350 nM |
| B31 | 55 nM |
| B32 | 310 nM |
| B33 | 280 nM |
| B34 | 160 nM |
| B35 | 230 nM |
